Biological target: ATM/Tel1 kinase from Schizosaccharomyces pombe (S. pombe) (UniProt O74630)
Assay: cryo-EM structure; single-particle cryo-EM of purified ATM/Tel1, 20-50 ug/ml in 20 mM HEPES pH 8.0, 40 mM KOAc, 5 mM MgCl2, 0.1% trehalose, 2 mM DTT, 0.01% NP-40; 8.7 Å; initial model from negative-stain RCT

Question: How did the stoichiometry N turn out when “ATM/Tel1 kinase from Schizosaccharomyces pombe, O74630 1-2812” was run?
Answer: The stoichiometry N was 2.

Source: PMC4894967
